*1 amine or outer side, *2 acyl side, *3 side chain or, on linkers, in order; H or OH if unused. Where a SMILES comes first, the peptide text is derived from it. Where no end group is shown, it is not given here. Side-chain parts run from the residue outwards. [ ]: non-standard residue; d: D form. The star is where a group is joined. C20 diacid = O=C(O)CCCCCCCCCCCCCCCCCCC(=O)*; γGlu = O=C(O)[C@H](CCC(=O)[*:2])N[*:1]; εLys = N[C@@H](CCCCN[*:1])C(=O)[*:2]; αMeL = CC(C)C[C@](C)(N)C(=O)O; AEEA = NCCOCCOCC(=O)O; Aib = CC(C)(N)C(=O)O
T1: human corticotropin-releasing hormone receptor 1 (CRHR1) (human, UniProt P34998 24-415)
T1 sequence (looked up): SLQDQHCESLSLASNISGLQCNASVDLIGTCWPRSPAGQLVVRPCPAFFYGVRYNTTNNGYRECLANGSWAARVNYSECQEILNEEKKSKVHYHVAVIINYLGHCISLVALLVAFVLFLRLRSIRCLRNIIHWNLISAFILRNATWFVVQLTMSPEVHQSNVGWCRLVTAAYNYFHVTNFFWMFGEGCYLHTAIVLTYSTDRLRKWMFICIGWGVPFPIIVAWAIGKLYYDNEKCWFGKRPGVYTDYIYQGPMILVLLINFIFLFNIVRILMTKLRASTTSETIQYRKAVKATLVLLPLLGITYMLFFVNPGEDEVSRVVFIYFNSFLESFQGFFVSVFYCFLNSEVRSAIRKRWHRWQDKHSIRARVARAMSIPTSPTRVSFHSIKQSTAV

T2: human CRHR2 (Homo sapiens, UniProt Q13324)
T2 construct: expressed in transfected cells
T2 sequence (Q13324 1-438 isoform Q13324-2): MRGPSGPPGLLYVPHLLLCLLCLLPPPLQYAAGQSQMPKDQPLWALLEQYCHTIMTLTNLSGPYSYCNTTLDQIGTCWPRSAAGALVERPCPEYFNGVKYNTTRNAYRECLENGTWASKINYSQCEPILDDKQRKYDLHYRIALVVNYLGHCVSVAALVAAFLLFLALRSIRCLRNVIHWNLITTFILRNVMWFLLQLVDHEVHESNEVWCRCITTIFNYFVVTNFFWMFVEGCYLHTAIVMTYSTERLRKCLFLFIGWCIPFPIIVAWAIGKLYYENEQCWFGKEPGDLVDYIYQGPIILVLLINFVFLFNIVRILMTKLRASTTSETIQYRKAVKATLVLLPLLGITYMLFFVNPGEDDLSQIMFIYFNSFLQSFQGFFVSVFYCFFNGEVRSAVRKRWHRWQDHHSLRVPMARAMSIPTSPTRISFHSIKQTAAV

B1: polypeptide comprising SEQ ID NO:42 (peptide)
peptide: Ac-IVTS[αMeL]D[dV]PI[Aib][αMeL]LQIKLEQERAEKARQQAK([AEEA-AEEA-γGlu-C20 diacid])ENTEILAQV-NH2
SMILES: CC[C@H](C)[C@H](NC(C)=O)C(=O)N[C@H](C(=O)N[C@H](C(=O)N[C@@H](CO)C(=O)N[C@@](C)(CC(C)C)C(=O)N[C@@H](CC(=O)O)C(=O)N[C@@H](C(=O)N1CCC[C@H]1C(=O)N[C@H](C(=O)NC(C)(C)C(=O)N[C@@](C)(CC(C)C)C(=O)N[C@@H](CC(C)C)C(=O)N[C@@H](CCC(N)=O)C(=O)N[C@H](C(=O)N[C@@H](CCCCN)C(=O)N[C@@H](CC(C)C)C(=O)N[C@@H](CCC(=O)O)C(=O)N[C@@H](CCC(N)=O)C(=O)N[C@@H](CCC(=O)O)C(=O)N[C@@H](CCCNC(=N)N)C(=O)N[C@@H](C)C(=O)N[C@@H](CCC(=O)O)C(=O)N[C@@H](CCCCN)C(=O)N[C@@H](C)C(=O)N[C@@H](CCCNC(=N)N)C(=O)N[C@@H](CCC(N)=O)C(=O)N[C@@H](CCC(N)=O)C(=O)N[C@@H](C)C(=O)N[C@@H](CCCCNC(=O)COCCOCCNC(=O)COCCOCCNC(=O)CC[C@H](NC(=O)CCCCCCCCCCCCCCCCCCC(=O)O)C(=O)O)C(=O)N[C@@H](CCC(=O)O)C(=O)N[C@@H](CC(N)=O)C(=O)N[C@H](C(=O)N[C@@H](CCC(=O)O)C(=O)N[C@H](C(=O)N[C@@H](CC(C)C)C(=O)N[C@@H](C)C(=O)N[C@@H](CCC(N)=O)C(=O)N[C@H](C(N)=O)C(C)C)[C@@H](C)CC)[C@@H](C)O)[C@@H](C)CC)[C@@H](C)CC)C(C)C)[C@@H](C)O)C(C)C
B2: polypeptide comprising SEQ ID NO:41 (peptide)
peptide: Ac-IVTS[αMeL]D[dV]PT[Aib][αMeL]LQIKLEQERAEKARQQAK([AEEA-AEEA-γGlu-C20 diacid])ENTEILAQV-NH2
SMILES: CC[C@H](C)[C@H](NC(C)=O)C(=O)N[C@H](C(=O)N[C@H](C(=O)N[C@@H](CO)C(=O)N[C@@](C)(CC(C)C)C(=O)N[C@@H](CC(=O)O)C(=O)N[C@@H](C(=O)N1CCC[C@H]1C(=O)N[C@H](C(=O)NC(C)(C)C(=O)N[C@@](C)(CC(C)C)C(=O)N[C@@H](CC(C)C)C(=O)N[C@@H](CCC(N)=O)C(=O)N[C@H](C(=O)N[C@@H](CCCCN)C(=O)N[C@@H](CC(C)C)C(=O)N[C@@H](CCC(=O)O)C(=O)N[C@@H](CCC(N)=O)C(=O)N[C@@H](CCC(=O)O)C(=O)N[C@@H](CCCNC(=N)N)C(=O)N[C@@H](C)C(=O)N[C@@H](CCC(=O)O)C(=O)N[C@@H](CCCCN)C(=O)N[C@@H](C)C(=O)N[C@@H](CCCNC(=N)N)C(=O)N[C@@H](CCC(N)=O)C(=O)N[C@@H](CCC(N)=O)C(=O)N[C@@H](C)C(=O)N[C@@H](CCCCNC(=O)COCCOCCNC(=O)COCCOCCNC(=O)CC[C@H](NC(=O)CCCCCCCCCCCCCCCCCCC(=O)O)C(=O)O)C(=O)N[C@@H](CCC(=O)O)C(=O)N[C@@H](CC(N)=O)C(=O)N[C@H](C(=O)N[C@@H](CCC(=O)O)C(=O)N[C@H](C(=O)N[C@@H](CC(C)C)C(=O)N[C@@H](C)C(=O)N[C@@H](CCC(N)=O)C(=O)N[C@H](C(N)=O)C(C)C)[C@@H](C)CC)[C@@H](C)O)[C@@H](C)CC)[C@@H](C)O)C(C)C)[C@@H](C)O)C(C)C

Each molecule was assayed against T1, human corticotropin-releasing hormone … (assay: cell-based or functional assay). Details: not given.

Molecule | hCRHR1 cAMP EC50 [µM]
B1 | 2.3
Ac-IVTS[αMeL]D[dV]PTG[αMeL]LQIKLEQERAEKARQQAKENTEILAQV-NH2 (not fully specified (residue 29)) [polypeptide comprising SEQ ID NO:44] | > 10
[γGlu]GPSIVTS[αMeL]D[dV]PI[Aib][αMeL]LQIKLEQERAEKARQQAK([AEEA-AEEA-γGlu-C20 diacid])ENTEILAQV-NH2 [polypeptide comprising SEQ ID NO:45] | 3.7
Ac-IVTS[αMeL]D[dV]PTG[αMeL]LQIKLEQERAEKARQQAKENTEILAQV-NH2 (not fully specified (residue 29)) [polypeptide comprising SEQ ID NO:43] | > 10
Ac-IVTS[αMeL]D[dV]PTG[αMeL]LQIKLEQERAEKARQQAKENTEILAQV-NH2 (not fully specified (residue 29)) [polypeptide comprising SEQ ID NO:40] | > 10
B2 | 3.7

These molecules were tested against T2, human CRHR2 (assay: Human CRHR2 cAMP assay (HTRF) in HEK293 cells stably expressing human CRHR2). Details: HEK293 cells overexpressing human CRHR2; relative EC50, maximum 10 nM human UCN2; mean ± SE; read-out: hCRHR2 cAMP EC50 (pM, ± SE).
Assay type: cell-based
Protocol: The corticotropin-releasing hormone (CRH) receptor 1 and 2 (CRHR1 and CRHR2) are GPCRs that were functionally coupled to Gs proteins. Stimulation of these receptors results in an increased production of intracellular cAMP, which can be detected using standard in vitro technologies. In vitro activity of peptides was measured by the amount of cAMP formed in human CRHR1 and CRHR2 overexpressed cells.
Human CRHR1 and CRHR2 receptors were stably expressed in human embryonic kidney cells (HEK293) under control of a pcDNA expression vector. The HEK293 cell line was cultured in DMEM 1× (Gibco, 93-0152DK) supplemented with 10% FBS, 1 mM sodium pyruvate, 1×MEM NEAA, 1× GlutaMAX and 10 mM HEPES. The plasmids of human CRHR1-pQCXIP (T7364) and human CRHR2b-R2683puro (T16761) DNA were transfected into HEK293 cells using Lipo fectAMINE 3000 Transfection reagent (Invitrogen, L3000001). After 20 days under selection, the mRNA levels from different clones were measured to confirm the expression of human CRHR1 and CRHR2 genes. To determine the function of over-expressed CRHR cells, the intracellular cAMP levels in response to human UCN1 and UCN2 were measured and compared to the expression of CRHR1 and CRHR2 mRNA in each clone.
Human CRHR1 cells were cultured in DMEM 1× (Gibco, 93-0152DK) supplemented with 10% FBS, 1 mM sodium pyruvate, 1×MEM NEAA, 1×GlutaMAX, 10 mM HEPES, and 800 μg/ml G418. Human CRHR2 cells were cultured at the same media (DMEM 1×, 10% FBS, 1 mM sodium pyruvate, 1×MEM NEAA, 1×GlutaMAX, 10 mM HEPES) in the presence of 0.5 ug/mL puromycin. Cultured cells were grown to 90% confluency and harvested. The cells were frozen at 10×10e6/ml in a mixture of […] fetal bovine serum plus 7% DMSO and stored in liquid nitrogen until use.
On the day of the assay, the frozen cells were thawed and diluted in assay buffer (Phenol Red free MEM (Corning, 17-305-CV, lot #32121010), 0.1% Casein (Sigma C4765, lot #SLCG2120), 5 mM HEPES pH 7.4 containing 0.25 mM IBMX). 10 ul of human CRHR1 cells (25,000 cells) or 10 μL of human CRHR2 cells (5,000 cells) were dispensed into each well of white poly-D-lysine coated 384-well plates (Corning cat #354661). Test compounds diluted in DMSO were added (200 nL/well) in a 1:3 dilution series using ECHO acoustic liquid handler (Beckman). The mixture of cells and test compounds were incubated at 37° C. for 1 hour for the hCRHR1 plate, while the CRHR2 plates were incubated at room temperature for 30 min.
The amount of intracellular cAMP was quantitated using HTRF technology (Homogeneous Time Resolved Fluorescence; Cisbio) as per vendor instructions. Briefly, 10 uL CAMP-d2 conjugate and 10 uL anti-CAMP-cryptate conjugate in lysis buffer were incubated with the treated cells at room temperature for 60 min. The HTRF signal was immediately detected using an Envision plate reader (Perkin-Elmer) to calculate the ratio of fluorescence at 665 to 620 nm.
Raw fluorescence data for concentration curves of the peptides in Table 2 and Table 3 were converted to cAMP amount (pmol/well) using a cAMP standard curve generated for each experiment.

Molecule | EC50 [pM]
CC[C@H](C)[C@H](NC(C)=O)C(=O)N[C@H](C(=O)N[C@H](C(=O)N[C@@H](CO)C(=O)N[C@@](C)(CC(C)C)C(=O)N[C@@H](CC(=O)O)C(=O)N[C@@H](C(=O)N1CCC[C@H]1C(=O)N[C@H](C(=O)NCC(=O)N[C@@](C)(CC(C)C)C(=O)N[C@@H](CC(C)C)C(=O)N[C@@H](CCC(N)=O)C(=O)N[C@H](C(=O)N[C@@H](CCCCN)C(=O)N[C@@H](CC(C)C)C(=O)N[C@@H](CCC(=O)O)C(=O)N[C@@H](CCC(N)=O)C(=O)N[C@@H](CCC(=O)O)C(=O)N[C@@H](CCCNC(=N)N)C(=O)N[C@@H](C)C(=O)N[C@@H](CCC(=O)O)C(=O)N[C@@H](CCCCN)C(=O)N[C@@H](C)C(=O)N[C@@H](CCCNC(=N)N)C(=O)N[C@@H](CCC(N)=O)C(=O)N[C@@H](CCC(N)=O)C(=O)N[C@@H](C)C(=O)N[C@@H](CCCCNC(=O)[C@@H](N)CCCCNC(=O)CC[C@H](NC(=O)COCCOCCNC(=O)CCCCCCCCCCCCCCCCCCC(=O)O)C(=O)O)C(=O)N[C@@H](CCC(=O)O)C(=O)N[C@@H](CC(N)=O)C(=O)N[C@H](C(=O)N[C@@H](CCC(=O)O)C(=O)N[C@H](C(=O)N[C@@H](CC(C)C)C(=O)N[C@@H](C)C(=O)N[C@@H](CCC(N)=O)C(=O)N[C@H](C(N)=O)C(C)C)[C@@H](C)CC)[C@@H](C)O)[C@@H](C)CC)[C@@H](C)O)C(C)C)[C@@H](C)O)C(C)C [SEQ ID NO: 35, Ac-IVTS αMeL D (D-Val) PTG αMeL LQIKLEQERAEKARQQAK(ϵK-γE-(2-[2-(2-Amino-ethoxy)-ethoxy]-acetyl)-CO-(CH2)18-CO2H)ENTEILAQV-NH2] (Ac-IVTS[αMeL]D[dV]PTG[αMeL]LQIKLEQERAEKARQQAK([εLys-γGlu-AEEA-C20 diacid])ENTEILAQV-NH2) | 5.3 ± 0.9

From patent US20250163119A1, “COMPOUNDS FOR THE TREATMENT OF DIABETES OR OBESITY” (Eli Lilly and Company, priority 2023, published 2025)
